Patent publication US11413334B2, “Lysin polypeptides active against Gram-negative bacteria” (CONTRAFECT CORPORATION, priority 2015, dated 2022)
Entries after “also recorded” stand apart in the source; their conditions may differ.

Legend:
PAO1 cells = assay: Killing assay of GN4-derived peptides in Tris-HCl buffer; conditions: FIG. 6; compared with parent GN4 fragment
[1] = tested on: P. aeruginosa strain PAO1; assay: Viability (CFU) assay of GN lysins in Tris-HCl buffer; conditions: for antibacterial activity compared with HuLYS or novobiocin / antibacterial activity compared with EDTA and PMB: lysin 25 mcg/ml, 1 hour, 37° C., 20 mM Tris-HCl pH 7.2, FIG. 4; for antibacterial activity compared with HuLYS or novobiocin: HuLYZ 25 mcg/ml, novobiocin 5 mcg/ml; for antibacterial activity compared with EDTA and PMB: EDTA 1 mM, PMB 25 mcg/ml
[2] = tested on: P. aeruginosa strain PAO1; format: cell-based, Pseudomonas aeruginosa; conditions: E. coli clones of five Micavibrio aeruginosavorus hydrolases screened

Molecule	antibacterial activity compared with HuLYS or novobiocin [1]	antibacterial activity compared with EDTA and PMB [1]	further results
FGN4-2: FGN4-1 with the 11 C-terminal residues removed, 31 amino acids (NKGDYQGAADQFPRWVNAGGKRLDGLVKRRA; Pseudomonas phage PAJU2)			effect of the sequence modification on activity of the parent fragment (PAO1 cells): did reduce activity
FGN4-4: FGN4-1 with a single C-terminal cysteine added (NKGDYQGAADQFPRWVNAGGKRLDGLVKRRAAERALFLEPLSC; artificially-created modified fragment of GN4 (SEQ ID NO 3))			effect of the sequence modification on activity of the parent fragment (PAO1 cells): enhanced the activity of the FGN4-1
GN43: 439 amino acid lysin polypeptide, peptidase M23 of Pseudomonas (protein, listed as Pseudomonas sp.) MKRTTLNLELESNTDRLLQEKDDLLPQSVTNSSDEGTPFAQVEGASDDNTAEQDSDKPGASVADADTKPVDPEWKTITVASGDTLSTVFTKAGLSTSAMHDMLTSSKDAKRFTHLKVGQEVKLKLDPKGELQALRVKQSELETIGLDKTDKGYSFKREKAQIDLHTAYAHGRITSSLFVAGRNAGLPYNLVTSLSNIFGYDIDFALDLREGDEFDVIYEQHKVNGKQVATGNILAARFVNRGKTYTAVRYTNKQGNTSYYRADGSSMRKAFIRTPVDFARISSRFSLGRRHPILNKIRAHKGVDYAAPIGTPIKATGDGKILEAGRKGGYGNAVVIQHGQRYRTIYGHMSRFAKGIRAGTSVKQGQIIGYVGMTGLATGPHLHYEFQINGRHVDPLSAKLPMADPLGGADRKRFMAQTQPMIARMDQEKKTLLALNKQR	greater antibacterial activity		
GN2: 147 amino acid lysin polypeptide, lysozyme class, from marine metagenome (protein, hypothetical protein GOS_817346 [marine metagenome] (GenBank EDG23390.1)) MKISLEGLSLIKKFEGCKLEAYKCSAGVWTIGYGHTAGVKEGDVCTQEEAEKLLRGDIFKFEEYVQDSVKVDLDQSQFDALVAWTFNLGPGNLRSSTMLKKLNNGEYESVPFEMRRWNKAGGKTLDGLIRRRQAESLLFESKEWHQV	greater antibacterial activity		
GN14: 189 amino acid lysin polypeptide, putative endolysin of Pseudomonas phage Lu11 (protein, Pseudomonas phage Lu11) MNNELPWVAEARKYIGLREDTSKTSHNPKLLAMLDRMGEFSNESRAWWHDDETPWCGLFVGYCLGVAGRYVVREWYRARAWEAPQLTKLDRPAYGALVTFTRSGGGHVGFIVGKDARGNLMVLGGNQSNAVSIAPFAVSRVTGYFWPSFWRNKTAVKSVPFEERYSLPLLKSNGELSTNEA	greater antibacterial activity	equivalent antibacterial activity; also recorded: stronger or equivalent antibacterial activity	
GN37: 126 amino acid lysin polypeptide, peptidase M15 from Micavibrio aeruginosavorus (protein, listed as Micavibrio aeruginosavorus) MTYTLSKRSLDNLKGVHPDLVAVVHRAIQLTPVDFAVIEGLRSVSRQKELVAAGASKTMNSRHLTGHAVDLAAYVNGIRWDWPLYDAIAVAVKAAAKELGVAIVWGGDWTTFKDGPHFELDRSKYR	greater antibacterial activity	equivalent antibacterial activity; also recorded: stronger or equivalent antibacterial activity	clearing zone on agar overlay plates [2]: yielded a clearing zone (halo); decrease in bacterial viability ([1]; after only 1 hour of treatment): > 3 log
GN4: 144 amino acid lysin polypeptide, putative endolysin of Pseudomonas phage PAJU2 (protein, Pseudomonas phage PAJU2) MRTSQRGIDLIKSFEGLRLSAYQDSVGVWTIGYGTTRGVTRYMTITVEQAERMLSNDIQRFEPELDRLAKVPLNQNQWDALMSFVYNLGAANLASSTLLKLLNKGDYQGAADQFPRWVNAGGKRLDGLVKRRAAERALFLEPLS	greater antibacterial activity	equivalent antibacterial activity; also recorded: stronger or equivalent antibacterial activity	
